B1: Sinorhizobium meliloti aminotransferase SM2011_b20423, SEQ ID NO: 60 (Sinorhizobium meliloti 1021) (protein)
chain: MLERSNELTAWDRDHFFHPSTHMGMHARGETPTRVIGGGEGVYITDISGKRSLDAFAGLYCVNVGYGRQKIADAIAEQAKNLAYYHAYVGHGTEASIRLSKMIIDRAPEGMSRVYFGLSGSDANETNIKLIWYYNNILGRPEKKKIISRWRGYHGSGVMTGSLTGLHLFHNAFDLPRAPILHTEAPYYFRRPDRSMSEEQFSQYCADKLEEMILAEGPDTVAAFIGEPILGTGGIVPPPKGYWEKIQAVLQKYDILLVADEVVTGFGRLGTMFGSDHYGIKPDLITIAKGLTSAYAPLSGTIVSDKLWQVLVKGSDELGAIGHGWTYSAHPICAAAGIANLELIDELGIVENAGSTGAYFRAELQKAVGDHRHVGEVRGDGLMAAIEFVEDRDDRAFFDPGRKVGPQVAAALLERGVIGRAMPQGDILGFAPPLCLTRDEADIVVKAAADTIQSVLGR
B2: Sinorhizobium meliloti aminotransferase SM2011_c04388, SEQ ID NO: 58 (Sinorhizobium meliloti 1021) (protein)
chain: MNAHNKPNAPVLDSYWMPFTANRQFKAAPRLLAAAEGMHYTSVDGRTVLDGTAGLWCVNAGHGRRQIAAAVERQLSTMDFAPSFQMGHPIAFDFAERLAEIAPGPAGAKLDRVFFTGSGSESVDTALKMALAYQRSIGQGTRTRLIGRERGYHGVGFGGISVGGIVNNRRVFPQLPGSDHLRHTHDPAKNAFVKGQPEHGAELADDLERLVALHGAETIAACIVEPVAGSTGVLIPPKGYLERLRAICDKHGILLIFDEVITGFGRLGAAFATDYFGVTPDIVTTAKGLTNGAIPMGAVFASRKVHDALMHGPEGQIELFHGYTYSGHPAACAAGIATLDIYRDEGLMTRAAEIEGDWHEAMHSMKGLPHVIDIRTIGLIAGIELQSRDGAPGARAYDVFVDCFERGLLIRVTGDIIAFSPPLIAEKQHFGEIVSILADALKRVK
B3: Sinorhizobium meliloti aminotransferase SM2011_b20379, SEQ ID NO: 59 (Sinorhizobium meliloti 1021) (protein)
chain: MNDRPNSLHALDKQSLVHPYTNLAVHQETGPHVITGGDGIYVVDDEGKRYIEGLAGLFCAGLGFSEQRLVEAATRQLKTMPFYHSFAHKSTEPGIRLAEKLLSIAPVPMSKVFFAGSGSEANDTAIKLIWYYNNALGRPEKKKIISRRKAYHGVTVATASLTGLPFNHRDFDLPIANILHTDCPHYWRFAETGETEEDFATRMANNLEAIILEEGPETIAAFFAEPVMVSGGVITPPKTYFEKVQAVLRKYDILLIADEVICGFGRTGNMFGSETYGLKPDMISCAKQLSAAYMPISALMINAKIADALVDQSRKIGTFSHGFTYGGHPVAAAVALEALTIYEEIDIVGHVRSVAPAFQDRVRKLGEHPLIGEARGVGLVAGLEFVKDKATRENFPPAWQVANQAGKFATARGVLTRGLGDMVSLCPAMIIDDEQIDDLMTRMGLALDDTLAWARAQGHVG
B4: Mycobacterium smegmatis carboxylate reductase MSMEG_2956, SEQ ID NO: 70 (Mycolicibacterium smegmatis MC2 155) (protein)
chain: MTIETREDRFNRRIDHLFETDPQFAAARPDEAISAAAADPELRLPAAVKQILAGYADRPALGKRAVEFVTDEEGRTTAKLLPRFDTITYRQLAGRIQAVTNAWHNHPVNAGDRVAILGFTSVDYTTIDIALLELGAVSVPLQTSAPVAQLQPIVAETEPKVIASSVDFLADAVALVESGPAPSRLVVFDYSHEVDDQREAFEAAKGKLAGTGVVVETITDALDRGRSLADAPLYVPDEADPLTLLIYTSGSTGTPKGAMYPESKTATMWQAGSKARWDETLGVMPSITLNFMPMSHVMGRGILCSTLASGGTAYFAARSDLSTFLEDLALVRPTQLNFVPRIWDMLFQEYQSRLDNRRAEGSEDRAEAAVLEEVRTQLLGGRFVSALTGSAPISAEMKSWVEDLLDMHLLEGYGSTEAGAVFIDGQIQRPPVIDYKLVDVPDLGYFATDRPYPRGELLVKSEQMFPGYYKRPEITAEMFDEDGYYRTGDIVAELGPDHLEYLDRRNNVLKLSQGEFVTVSKLEAVFGDSPLVRQIYVYGNSARSYLLAVVVPTEEALSRWDGDELKSRISDSLQDAARAAGLQSYEIPRDFLVETTPFTLENGLLTGIRKLARPKLKAHYGERLEQLYTDLAEGQANELRELRRNGADRPVVETVSRAAVALLGASVTDLRSDAHFTDLGGDSLSALSFSNLLHEIFDVDVPVGVIVSPATDLAGVAAYIEGELRGSKRPTYASVHGRDATEVRARDLALGKFIDAKTLSAAPGLPRSGTEIRTVLLTGATGFLGRYLALEWLERMDLVDGKVICLVRARSDDEARARLDATFDTGDATLLEHYRALAADHLEVIAGDKGEADLGLDHDTWQRLADTVDLIVDPAALVNHVLPYSQMFGPNALGTAELIRIALTTTIKPYVYVSTIGVGQGISPEAFVEDADIREISATRRVDDSYANGYGNSKWAGEVLLREAHDWCGLPVSVFRCDMILADTTYSGQLNLPDMFTRLMLSLVATGIAPGSFYELDADGNRQRAHYDGLPVEFIAEAISTIGSQVTDGFETFHVMNPYDDGIGLDEYVDWLIEAGYPVHRVDDYATWLSRFETALRALPERQRQASLLPLLHNYQQPSPPVCGAMAPTDRFRAAVQDAKIGPDKDIPHVTADVIVKYISNLQMLGLL
B5: Mycobacterium smegmatis carboxylate reductase MSMEG_5739, SEQ ID NO: 37 (Mycolicibacterium smegmatis MC2 155) (protein)
chain: MTSDVHDATDGVTETALDDEQSTRRIAELYATDPEFAAAAPLPAVVDAAHKPGLRLAEILQTLFTGYGDRPALGYRARELATDEGGRTVTRLLPRFDTLTYAQVWSRVQAVAAALRHNFAQPIYPGDAVATIGFASPDYLTLDLVCAYLGLVSVPLQHNAPVSRLAPILAEVEPRILTVSAEYLDLAVESVRDVNSVSQLVVFDHHPEVDDHRDALARAREQLAGKGIAVTTLDAIADEGAGLPAEPIYTADHDQRLAMILYTSGSTGAPKGAMYTEAMVARLWTMSFITGDPTPVINVNFMPLNHLGGRIPISTAVQNGGTSYFVPESDMSTLFEDLALVRPTELGLVPRVADMLYQHHLATVDRLVTQGADELTAEKQAGAELREQVLGGRVITGFVSTAPLAAEMRAFLDITLGAHIVDGYGLTETGAVTRDGVIVRPPVIDYKLIDVPELGYFSTDKPYPRGELLVRSQTLTPGYYKRPEVTASVFDRDGYYHTGDVMAETAPDHLVYVDRRNNVLKLAQGEFVAVANLEAVFSGAALVRQIFVYGNSERSFLLAVVVPTPEALEQYDPAALKAALADSLQRTARDAELQSYEVPADFIVETEPFSAANGLLSGVGKLLRPNLKDRYGQRLEQMYADIAATQANQLRELRRAAATQPVIDTLTQAAATILGTGSEVASDAHFTDLGGDSLSALTLSNLLSDFFGFEVPVGTIVNPATNLAQLAQHIEAQRTAGDRRPSFTTVHGADATEIRASELTLDKFIDAETLRAAPGLPKVTTEPRTVLLSGANGWLGRFLTLQWLERLAPVGGTLITIVRGRDDAAARARLTQAYDTDPELSRRFAELADRHLRVVAGDIGDPNLGLTPEIWHRLAAEVDLVVHPAALVNHVLPYRQLFGPNVVGTAEVIKLALTERIKPVTYLSTVSVAMGIPDFEEDGDIRTVSPVRPLDGGYANGYGNSKWAGEVLLREAHDLCGLPVATFRSDMILAHPRYRGQVNVPDMFTRLLLSLLITGVAPRSFYIGDGERPRAHYPGLTVDFVAEAVTTLGAQQREGYVSYDVMNPHDDGISLDVFVDWLIRAGHPIDRVDDYDDWVRRFETALTALPEKRRAQTVLPLLHAFRAPQAPLRGAPEPTEVFHAAVRTAKVGPGDIPHLDEALIDKYIRDLREFGLI
B6: Mycobacterium smegmatis carboxylate reductase MSMEI_5586, SEQ ID NO: 35 (Mycolicibacterium smegmatis MC2 155) (protein)
chain: MHQLTVTGMNICEVQRLFPRMTSDVHDATDGVTETALDDEQSTRRIAELYATDPEFAAAAPLPAVVDAAHKPGLRLAEILQTLFTGYGDRPALGYRARELATDEGGRTVTRLLPRFDTLTYAQVWSRVQAVAAALRHNFAQPIYPGDAVATIGFASPDYLTLDLVCAYLGLVSVPLQHNAPVSRLAPILAEVEPRILTVSAEYLDLAVESVRDVNSVSQLVVFDHHPEVDDHRDALARAREQLAGKGIAVTTLDAIADEGAGLPAEPIYTADHDQRLAMILYTSGSTGAPKGAMYTEAMVARLWTMSFITGDPTPVINVNFMPLNHLGGRIPISTAVQNGGTSYFVPESDMSTLFEDLALVRPTELGLVPRVADMLYQHHLATVDRLVTQGADELTAEKQAGAELREQVLGGRVITGFVSTAPLAAEMRAFLDITLGAHIVDGYGLTETGAVTRDGVIVRPPVIDYKLIDVPELGYFSTDKPYPRGELLVRSQTLTPGYYKRPEVTASVFDRDGYYHTGDVMAETAPDHLVYVDRRNNVLKLAQGEFVAVANLEAVFSGAALVRQIFVYGNSERSFLLAVVVPTPEALEQYDPAALKAALADSLQRTARDAELQSYEVPADFIVETEPFSAANGLLSGVGKLLRPNLKDRYGQRLEQMYADIAATQANQLRELRRAAATQPVIDTLTQAAATILGTGSEVASDAHFTDLGGDSLSALTLSNLLSDFFGFEVPVGTIVNPATNLAQLAQHIEAQRTAGDRRPSFTTVHGADATEIRASELTLDKFIDAETLRAAPGLPKVTTEPRTVLLSGANGWLGRFLTLQWLERLAPVGGTLITIVRGRDDAAARARLTQAYDTDPELSRRFAELADRHLRVVAGDIGDPNLGLTPEIWHRLAAEVDLVVHPAALVNHVLPYRQLFGPNVVGTAEVIKLALTERIKPVTYLSTVSVAMGIPDFEEDGDIRTVSPVRPLDGGYANGYGNSKWAGEVLLREAHDLCGLPVATFRSDMILAHPRYRGQVNVPDMFTRLLLSLLITGVAPRSFYIGDGERPRAHYPGLTVDFVAEAVTTLGAQQREGYVSYDVMNPHDDGISLDVFVDWLIRAGHPIDRVDDYDDWVRRFETALTALPEKRRAQTVLPLLHAFRAPQAPLRGAPEPTEVFHAAVRTAKVGPGDIPHLDEALIDKYIRDLREFGLI

Assays:
[1] = substrate: O=CCCCCC=O; test: AT kinetics, coupled with alanine and glutamate dehydrogenases; type: biochemical, Sinorhizobium meliloti; conditions: other: amino-donor Ala/Glu; pH 7.5
Protocol: 28 PLP-dependent aminotransferases (from the classes I, II and III) were cloned and overexpressed in E. coli (Table 6). Enzymes were purified using affinity chromatography on a Ni-NTA resin and were screened for […] activity towards adipaldehyde using alanine and glutamate as amino-donors. Enzyme activity was measured spectrophotometrically using a coupled reaction with the NADPH/NADH-dependent alanine and glutamate dehydrogenases in the presence of excess of ammonium chloride.
Reaction was monitored by following the decrease in absorbance of NAD(P)H to NAD(P)+ at 340 nm (ε340 nm=6,220/M·cm). Coupled enzymes can aminate pyruvate/ketoglutarate produced by ATs in excess of NH4Cl.

[2] = substrate: O=C(O)CCCCCO; test: purified protein, by the assay type; conditions: other: ATP/NADPH dependent reduction; pH 7.5

Protein	Km [1]	kcat [1]	kcat/Km [1]	Km [2]	kcat [2]	kcat/Km [2]
B1	2.64 ± 0.35 mM	0.28 ± 0.01 s⁻¹	(1.05 ± 0.06) × ×10^2 M^−1 · s^−1	–	–	–
B2	8.58 ± 3.34 mM	–	–	–	–	–
B3	0.32 ± 0.10 mM	0.26 ± 0.05 s⁻¹	(8.08 ± 1.52) × ×10^2 M^−1 · s^−1	–	–	–
B4	–	–	–	66.15 ± 9.48 mM	2.32 ± 0.22 s⁻¹	35.1 ± 3.29 M⁻¹ s⁻¹
B5	–	–	–	8.33 ± 0.73 mM	1.21 ± 0.04 s⁻¹	145 ± 4.4 M⁻¹ s⁻¹
B6	–	–	–	16.2 ± 2.11 mM	1.2 ± 0.07 s⁻¹	74.2 ± 4.05 M⁻¹ s⁻¹

Reference: patent publication US12371675B2, “Process and microorganism for synthesis of adipic acid from carboxylic acids” (THE GOVERNING COUNCIL OF THE UNIVERSITY OF TORONTO, priority 2015, dated 2025)
